{
  "source": "paper PMC3237733",
  "binders": {"B1": {"name": "GST-VE-cadherin_(415–534) (domain or fragment)", "chain": "KGQFFRVTKKGDIYNEKELDREVYPWYNLTVEAKELDSTGTPTGKESIVQVHIEVLDENDNAPEFAKPYQPKVCENAVHGQLVLQISAIDKDITPRNVKFKFILNTENNFTLTDNHDNTA"}},
  "target": "dansylated-FadAc (Fusobacterium nucleatum 12230) (UniProt Q5I6B0)",
  "assay": "other fluorescence titration",
  "data": [
    {"binder": "B1", "values": [
      {"measurement": "Kd", "result": 15.9, "unit": "µM"}
    ]}
  ]
}
